In patent publication CN117603358A (INST MICROBIOLOGY CAS; 3SBIO GROUP; SHANXI ADVANCED …, dated 2024):

Key:
Experiment in all cases: cell-based or functional assay
[1] = target: S蛋白, SARS-CoV-2 EG.5突变株 (SARS-CoV-2 EG.5)
[2] = target: S蛋白, SARS-CoV-2 BQ.1.1 (SARS-CoV-2 BQ.1.1)
[3] = target: S蛋白, SARS-CoV-2 BA.3 (SARS-CoV-2 BA.3)
[4] = target: S蛋白, SARS-CoV-2 BA.1.1 (SARS-CoV-2 BA.1.1)
[5] = target: S蛋白, SARS-CoV-2 BA.4/5 (SARS-CoV-2 BA.4/5)
[6] = target: S蛋白, SARS-CoV-2 XBB (SARS-CoV-2 XBB)
[7] = target: S蛋白, SARS-CoV-2 BF.7 (SARS-CoV-2 BF.7)
[8] = target: T1, S蛋白, SARS-CoV-2 XBB.1.5 (SARS-CoV-2 XBB.1.5)
[9] = target: S蛋白, SARS-CoV-2 BQ.1 (SARS-CoV-2 BQ.1)
[10] = target: S蛋白, SARS-CoV-2 BA.1 (SARS-CoV-2 BA.1)
[11] = target: T2, S蛋白, SARS-CoV-2 BA.2.75 (SARS-CoV-2 BA.2.75)
[12] = target: S蛋白, SARS-CoV-2 BA.2 (SARS-CoV-2 BA.2)
[13] = target: S蛋白, SARS-CoV-2 XBB.1.16 (SARS-CoV-2 XBB.1.16)
[14] = target: S蛋白, SARS-CoV-2 Delta (SARS-CoV-2 Delta)
[15] = target: S蛋白, SARS-CoV-2 BQ.1.1 (SARS-CoV-2 BQ.1.1); remark: listed apart in the source
[16] = target: S蛋白, SARS-CoV-2 BA.4/5 (SARS-CoV-2 BA.4/5); remark: listed apart in the source
[17] = target: S蛋白, SARS-CoV-2 XBB (SARS-CoV-2 XBB); remark: listed apart in the source
[18] = target: S蛋白, SARS-CoV-2 BF.7 (SARS-CoV-2 BF.7); remark: listed apart in the source
[19] = target: T1, S蛋白, SARS-CoV-2 XBB.1.5; remark: listed apart in the source
[20] = target: S蛋白, SARS-CoV-2 BQ.1 (SARS-CoV-2 BQ.1); remark: listed apart in the source
[21] = target: S蛋白, SARS-CoV-2 BA.1 (SARS-CoV-2 BA.1); remark: listed apart in the source
[22] = target: T2, S蛋白, SARS-CoV-2 BA.2.75; remark: listed apart in the source

Row | Binder | 假病毒中和效果 IC50 [1] [µg/mL] | 假病毒中和效果 IC50 [2] [µg/mL] | 假病毒中和效果 IC50 [3] [µg/mL] | 假病毒中和效果 IC50 [4] [µg/mL] | 假病毒中和效果 IC50 [5] [µg/mL] | 假病毒中和效果 IC50 [6] [µg/mL] | 假病毒中和效果 IC50 [7] [µg/mL] | 假病毒中和效果 IC50 [8] [µg/mL] | 假病毒中和效果 IC50 [9] [µg/mL] | 假病毒中和效果 IC50 [10] [µg/mL] | 假病毒中和效果 IC50 [11] [µg/mL] | 假病毒中和效果 IC50 [12] [µg/mL] | 假病毒中和效果 IC50 [13] [µg/mL] | 假病毒中和活性 IC50 [14] [µg/mL] | 假病毒中和活性 IC50 [15] [µg/mL] | 假病毒中和活性 IC50 [16] [µg/mL] | 假病毒中和活性 IC50 [17] [µg/mL] | 假病毒中和活性 IC50 [18] [µg/mL] | 假病毒中和活性 IC50 [19] [µg/mL] | 假病毒中和活性 IC50 [20] [µg/mL] | other results
1 | CoV56单抗 (antibody, V domains shown) VH: EVQLVESGGGVVQPGGSLRLSCAVSGFTFDDYAMHWVRQAPGKGLDWVSLISGDGSYTYYADSVKGRFTISRDSSKNSLYLQMNSLRTEDTALYYCAKAQTPTLWWLQDAFDIWGQGTMVTVSS VL: not shown | 13.6 | 15.9 | 18.5 | 10.8 | 7.53 | 15.9 | 11.7 | 11.8 | 19.6 | 14.8 | 58.8 | 8.32 | 21.7 | > 2 | > 2 | > 2 | > 2 | > 2 | > 2 | > 2 | 假病毒中和活性 IC50 [21]: > 2 µg/mL; 假病毒中和活性 IC50 [22]: > 2 µg/mL
2 | L4.65单抗 (antibody, V domains shown) VH: QITLKESGPTLVKPTQTLTLTCTFSGFSLSTSGVGVAWIRQPPGKALEWLALIYWDNDKRSSPSLNNRLTITKDTSKNQVVLTMTNMDPEDTATYYCAHFFSHYDSSNYYYGSWFDPWGQGTLVTVSS VL: EIVLTQSPGTLSLSPGERATLSCRASQSFDSRYLGWYQQKSGQAPRLLIYGASSRATGIPDRFSGSGSGTDFTLTISRLEPEDFAVYYCQQFGDSPFTFGQGTKLEIKR | 0.0521 | 4.58 | 0.00044 | 0.00028 | 0.000377 | 0.00335 | 0.000446 | 0.0137 | 2.09 | 0.000394 | 0.00194 | 0.00039 | 0.0103 | 0.00252 | > 2 | 0.00138 | 0.0214 | 0.00212 | 0.0541 | > 2 | 假病毒中和活性 IC50 [21]: 0.00135 µg/mL; 假病毒中和活性 IC50 [22]: 0.0112 µg/mL
